# Experimental data published in publication PMC9482650, “Quantitative fragmentomics allow affinity mapping of interactomes” (Nature Communications, 2022).
# Positions count from the first letter of the chain named.
# T1: DLG3_1, Q92796
# T1 sequence (Q92796 125-227, limits assumed, looked up): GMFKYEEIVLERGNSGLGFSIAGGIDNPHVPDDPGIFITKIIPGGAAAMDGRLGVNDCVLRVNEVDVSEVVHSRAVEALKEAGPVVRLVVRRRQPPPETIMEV
# T2: DLG3_3, Q92796
# T2 sequence (Q92796 374-475, limits assumed, looked up): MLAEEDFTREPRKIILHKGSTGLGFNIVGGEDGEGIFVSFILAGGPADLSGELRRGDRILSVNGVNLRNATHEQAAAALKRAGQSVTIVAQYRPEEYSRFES
# T3: DVL3, Q92997
# T3 sequence (Q92997 244-331, limits assumed, looked up): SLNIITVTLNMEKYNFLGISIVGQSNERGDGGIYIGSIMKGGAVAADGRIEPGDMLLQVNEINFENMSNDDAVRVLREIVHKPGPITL
# T4: LIN7A, O14910
# T4 sequence (O14910 103-200, limits assumed, looked up): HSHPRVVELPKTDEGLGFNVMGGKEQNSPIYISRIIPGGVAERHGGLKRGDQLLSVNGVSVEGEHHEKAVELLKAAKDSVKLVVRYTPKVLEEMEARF
# T5: LIN7B, Q9HAP6
# T5 sequence (Q9HAP6 88-185, limits assumed, looked up): T4 sequence (O14910 103-200, limits assumed, looked up) with S2A, V20I, I35V, E42D, H65Q, K77Q, D78G, K89R
# T6: MPDZ_12, O75970
# T6 sequence (O75970 1857-1958, limits assumed, looked up): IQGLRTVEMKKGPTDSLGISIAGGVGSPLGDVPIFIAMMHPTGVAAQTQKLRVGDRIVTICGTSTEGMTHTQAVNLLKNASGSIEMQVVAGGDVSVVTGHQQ
# T7: PCLO, Q9Y6V0
# T7 sequence (Q9Y6V0 4491-4600, limits assumed, looked up): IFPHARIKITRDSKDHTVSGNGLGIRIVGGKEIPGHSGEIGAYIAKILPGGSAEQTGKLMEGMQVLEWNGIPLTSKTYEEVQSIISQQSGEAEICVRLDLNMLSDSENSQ
# T8: PTPN13_1, Q12923
# T8 sequence (Q12923 1088-1188, limits assumed, looked up): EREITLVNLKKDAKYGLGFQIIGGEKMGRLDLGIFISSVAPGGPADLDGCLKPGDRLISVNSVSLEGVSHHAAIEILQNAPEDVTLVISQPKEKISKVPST
# T9: SHANK1, Q9Y566
# T9 sequence (Q9Y566 658-767, limits assumed, looked up): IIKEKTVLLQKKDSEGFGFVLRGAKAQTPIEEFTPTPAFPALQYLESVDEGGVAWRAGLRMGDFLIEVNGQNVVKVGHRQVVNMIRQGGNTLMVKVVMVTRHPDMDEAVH
# T10: TX1BP3, O14907
# T10 sequence (O14907 10-122, limits assumed, looked up): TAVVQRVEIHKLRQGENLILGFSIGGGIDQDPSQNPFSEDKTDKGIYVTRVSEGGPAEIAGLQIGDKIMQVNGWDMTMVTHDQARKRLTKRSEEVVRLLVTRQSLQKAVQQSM
# Biological target: ARHGEF12, Q9NZN5-2
# Test: holdup assay
# Set-up: key: below the threshold = too weak to quantify, mostly under pKd 3.1 to 4
# Conditions: plain residues with an end cap or a label only (N-terminal biotin on a linker: ado-ado)
# Chain of ARHGEF12, Q9NZN5-2 (Q9NZN5 other isoform, or with tags, fused parts or gaps): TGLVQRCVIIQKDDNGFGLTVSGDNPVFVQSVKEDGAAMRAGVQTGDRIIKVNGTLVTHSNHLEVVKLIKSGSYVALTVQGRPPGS
row,Binder,pKd
1,"FVFESRKEIL [TBPL1, P62380]",below the threshold
2,"IKLETKKTKL [SLC15A2, Q16348]",4.69

# Biological target: DLG1_2, Q12959
# Test: holdup assay
# Set-up: key: below the threshold = too weak to quantify, mostly under pKd 3.1 to 4
# Conditions: plain residues with an end cap or a label only (N-terminal biotin on a linker: ado-ado)
# Chain of DLG1_2, Q12959 (Q12959 314-412): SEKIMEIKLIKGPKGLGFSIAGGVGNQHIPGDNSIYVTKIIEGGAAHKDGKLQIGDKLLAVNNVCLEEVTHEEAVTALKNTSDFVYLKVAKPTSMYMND
row,Binder,pKd
1,"FVFESRKEIL [TBPL1, P62380]",below the threshold
2,"IKLETKKTKL [SLC15A2, Q16348]",below the threshold

# Biological target: T1, DLG3_1, Q92796
# Test: holdup assay
# Set-up: key: below the threshold = too weak to quantify, mostly under pKd 3.1 to 4
# Conditions: plain residues with an end cap or a label only (N-terminal biotin on a linker: ado-ado)
row,Binder,pKd
1,"FVFESRKEIL [TBPL1, P62380]",below the threshold
2,"IKLETKKTKL [SLC15A2, Q16348]",3.69

# Biological target: T2, DLG3_3, Q92796
# Test: holdup assay
# Set-up: key: below the threshold = too weak to quantify, mostly under pKd 3.1 to 4
# Conditions: plain residues with an end cap or a label only (N-terminal biotin on a linker: ado-ado)
row,Binder,pKd
1,"FVFESRKEIL [TBPL1, P62380]",below the threshold
2,"IKLETKKTKL [SLC15A2, Q16348]",3.81

# Biological target: DLG5_1, Q8TDM6
# Test: holdup assay
# Set-up: key: below the threshold = too weak to quantify, mostly under pKd 3.1 to 4
# Conditions: plain residues with an end cap or a label only (N-terminal biotin on a linker: ado-ado)
# Chain of DLG5_1, Q8TDM6 (Q8TDM6 617-713): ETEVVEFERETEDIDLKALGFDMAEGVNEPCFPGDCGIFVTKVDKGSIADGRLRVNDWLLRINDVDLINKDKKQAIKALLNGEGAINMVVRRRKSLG
row,Binder,pKd
1,"FVFESRKEIL [TBPL1, P62380]",below the threshold
2,"IKLETKKTKL [SLC15A2, Q16348]",3.53

# Biological target: T3, DVL3, Q92997
# Test: holdup assay
# Set-up: key: below the threshold = too weak to quantify, mostly under pKd 3.1 to 4
# Conditions: plain residues with an end cap or a label only (N-terminal biotin on a linker: ado-ado)
row,Binder,pKd
1,"FVFESRKEIL [TBPL1, P62380]",below the threshold
2,"IKLETKKTKL [SLC15A2, Q16348]",below the threshold

# Biological target: FRMPD2_1, Q68DX3
# Test: holdup assay
# Set-up: key: below the threshold = too weak to quantify, mostly under pKd 3.1 to 4
# Conditions: plain residues with an end cap or a label only (N-terminal biotin on a linker: ado-ado)
# Chain of FRMPD2_1, Q68DX3 (Q68DX3 770-861): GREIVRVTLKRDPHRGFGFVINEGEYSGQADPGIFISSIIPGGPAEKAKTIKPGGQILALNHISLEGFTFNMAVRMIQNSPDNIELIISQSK
row,Binder,pKd
1,"FVFESRKEIL [TBPL1, P62380]",below the threshold
2,"IKLETKKTKL [SLC15A2, Q16348]",below the threshold

# Biological target: GOPC, Q9HD26
# Test: holdup assay
# Set-up: key: below the threshold = too weak to quantify, mostly under pKd 3.1 to 4
# Conditions: plain residues with an end cap or a label only (N-terminal biotin on a linker: ado-ado)
row,Binder,pKd
1,"FVFESRKEIL [TBPL1, P62380]",below the threshold
2,"IKLETKKTKL [SLC15A2, Q16348]",4.29

# Biological target: GORASP2, Q9H8Y8
# Test: holdup assay
# Set-up: key: below the threshold = too weak to quantify, mostly under pKd 3.1 to 4
# Conditions: plain residues with an end cap or a label only (N-terminal biotin on a linker: ado-ado)
row,Binder,pKd
1,"FVFESRKEIL [TBPL1, P62380]",below the threshold
2,"IKLETKKTKL [SLC15A2, Q16348]",below the threshold

# Biological target: GRASP, Q7Z6J2
# Test: holdup assay
# Set-up: key: below the threshold = too weak to quantify, mostly under pKd 3.1 to 4
# Conditions: plain residues with an end cap or a label only (N-terminal biotin on a linker: ado-ado)
# Chain of GRASP, Q7Z6J2 (Q7Z6J2 96-193): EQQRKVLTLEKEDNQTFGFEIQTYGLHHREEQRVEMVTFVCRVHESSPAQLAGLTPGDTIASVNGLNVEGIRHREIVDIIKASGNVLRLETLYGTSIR
row,Binder,pKd
1,"FVFESRKEIL [TBPL1, P62380]",4.72
2,"IKLETKKTKL [SLC15A2, Q16348]",4.42

# Biological target: GRID2IP_1, A4D2P6
# Test: holdup assay
# Set-up: key: below the threshold = too weak to quantify, mostly under pKd 3.1 to 4
# Conditions: plain residues with an end cap or a label only (N-terminal biotin on a linker: ado-ado)
# Chain of GRID2IP_1, A4D2P6 (A4D2P6 1-87): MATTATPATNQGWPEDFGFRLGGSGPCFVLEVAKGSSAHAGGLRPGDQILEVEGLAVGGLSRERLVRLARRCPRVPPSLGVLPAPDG
row,Binder,pKd
1,"FVFESRKEIL [TBPL1, P62380]",below the threshold
2,"IKLETKKTKL [SLC15A2, Q16348]",below the threshold

# Biological target: Inadl_1, Q8NI35
# Test: holdup assay
# Set-up: key: below the threshold = too weak to quantify, mostly under pKd 3.1 to 4
# Conditions: plain residues with an end cap or a label only (N-terminal biotin on a linker: ado-ado)
# Chain of Inadl_1, Q8NI35 (Q8NI35 113-229): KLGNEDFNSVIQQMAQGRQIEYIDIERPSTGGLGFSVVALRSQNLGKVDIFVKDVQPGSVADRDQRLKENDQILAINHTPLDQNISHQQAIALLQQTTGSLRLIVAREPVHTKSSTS
row,Binder,pKd
1,"FVFESRKEIL [TBPL1, P62380]",below the threshold
2,"IKLETKKTKL [SLC15A2, Q16348]",below the threshold

# Biological target: Inadl_10, Q8NI35
# Test: holdup assay
# Set-up: key: below the threshold = too weak to quantify, mostly under pKd 3.1 to 4
# Conditions: plain residues with an end cap or a label only (N-terminal biotin on a linker: ado-ado)
# Chain of Inadl_10, Q8NI35 (Q8NI35 1673-1763): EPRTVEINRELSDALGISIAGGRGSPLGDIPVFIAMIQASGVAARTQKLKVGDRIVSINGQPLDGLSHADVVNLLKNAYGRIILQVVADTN
row,Binder,pKd
1,"FVFESRKEIL [TBPL1, P62380]",below the threshold
2,"IKLETKKTKL [SLC15A2, Q16348]",below the threshold

# Biological target: Inadl_5, Q8NI35
# Test: holdup assay
# Set-up: key: below the threshold = too weak to quantify, mostly under pKd 3.1 to 4
# Conditions: plain residues with an end cap or a label only (N-terminal biotin on a linker: ado-ado)
# Chain of Inadl_5, Q8NI35 (Q8NI35 673-780): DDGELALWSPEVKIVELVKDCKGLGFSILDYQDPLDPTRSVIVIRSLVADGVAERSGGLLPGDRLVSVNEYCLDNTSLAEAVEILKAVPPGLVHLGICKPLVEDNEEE
row,Binder,pKd
1,"FVFESRKEIL [TBPL1, P62380]",below the threshold
2,"IKLETKKTKL [SLC15A2, Q16348]",3.48

# Biological target: Inadl_9, Q8NI35
# Test: holdup assay
# Set-up: key: below the threshold = too weak to quantify, mostly under pKd 3.1 to 4
# Conditions: plain residues with an end cap or a label only (N-terminal biotin on a linker: ado-ado)
# Chain of Inadl_9, Q8NI35 (Q8NI35 1530-1615): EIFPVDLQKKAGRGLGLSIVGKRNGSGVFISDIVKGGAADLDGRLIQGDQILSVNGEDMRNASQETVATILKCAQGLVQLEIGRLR
row,Binder,pKd
1,"FVFESRKEIL [TBPL1, P62380]",below the threshold
2,"IKLETKKTKL [SLC15A2, Q16348]",below the threshold

# Biological target: T4, LIN7A, O14910
# Test: holdup assay
# Set-up: key: below the threshold = too weak to quantify, mostly under pKd 3.1 to 4
# Conditions: plain residues with an end cap or a label only (N-terminal biotin on a linker: ado-ado)
row,Binder,pKd
1,"FVFESRKEIL [TBPL1, P62380]",below the threshold
2,"IKLETKKTKL [SLC15A2, Q16348]",below the threshold

# Biological target: T5, LIN7B, Q9HAP6
# Test: holdup assay
# Set-up: key: below the threshold = too weak to quantify, mostly under pKd 3.1 to 4
# Conditions: plain residues with an end cap or a label only (N-terminal biotin on a linker: ado-ado)
row,Binder,pKd
1,"FVFESRKEIL [TBPL1, P62380]",below the threshold
2,"IKLETKKTKL [SLC15A2, Q16348]",below the threshold

# Biological target: LNX1_1, Q8TBB1
# Test: holdup assay
# Set-up: key: below the threshold = too weak to quantify, mostly under pKd 3.1 to 4
# Conditions: plain residues with an end cap or a label only (N-terminal biotin on a linker: ado-ado)
# Chain of LNX1_1, Q8TBB1 (Q8TBB1 261-371): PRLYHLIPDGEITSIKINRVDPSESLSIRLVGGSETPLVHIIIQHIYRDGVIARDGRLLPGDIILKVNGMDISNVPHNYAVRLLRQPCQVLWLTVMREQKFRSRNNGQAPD
row,Binder,pKd
1,"FVFESRKEIL [TBPL1, P62380]",below the threshold
2,"IKLETKKTKL [SLC15A2, Q16348]",3.79

# Biological target: MAGI2_2, Q86UL8
# Test: holdup assay
# Set-up: key: below the threshold = too weak to quantify, mostly under pKd 3.1 to 4
# Conditions: plain residues with an end cap or a label only (N-terminal biotin on a linker: ado-ado)
# Chain of MAGI2_2, Q86UL8 (Q86UL8 410-522): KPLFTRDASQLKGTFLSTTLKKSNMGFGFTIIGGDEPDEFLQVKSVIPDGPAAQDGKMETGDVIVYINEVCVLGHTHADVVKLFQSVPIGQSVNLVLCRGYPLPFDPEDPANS
row,Binder,pKd
1,"FVFESRKEIL [TBPL1, P62380]",below the threshold
2,"IKLETKKTKL [SLC15A2, Q16348]",3.47

# Biological target: MAGI2_6, Q86UL8
# Test: holdup assay
# Set-up: key: below the threshold = too weak to quantify, mostly under pKd 3.1 to 4
# Conditions: plain residues with an end cap or a label only (N-terminal biotin on a linker: ado-ado)
# Chain of MAGI2_6, Q86UL8 (Q86UL8 1141-1229): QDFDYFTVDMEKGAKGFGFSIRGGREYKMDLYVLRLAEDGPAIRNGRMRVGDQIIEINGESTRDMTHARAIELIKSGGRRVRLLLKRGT
row,Binder,pKd
1,"FVFESRKEIL [TBPL1, P62380]",below the threshold
2,"IKLETKKTKL [SLC15A2, Q16348]",below the threshold

# Biological target: MAST2, Q6P0Q8
# Test: holdup assay
# Set-up: key: below the threshold = too weak to quantify, mostly under pKd 3.1 to 4
# Conditions: plain residues with an end cap or a label only (N-terminal biotin on a linker: ado-ado)
# Chain of MAST2, Q6P0Q8 (Q6P0Q8 1099-1202): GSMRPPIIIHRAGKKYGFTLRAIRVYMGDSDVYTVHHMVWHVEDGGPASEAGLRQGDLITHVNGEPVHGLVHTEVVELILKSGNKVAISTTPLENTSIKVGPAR
row,Binder,pKd
1,"FVFESRKEIL [TBPL1, P62380]",4.95
2,"IKLETKKTKL [SLC15A2, Q16348]",5.56

# Biological target: T6, MPDZ_12, O75970
# Test: holdup assay
# Set-up: key: below the threshold = too weak to quantify, mostly under pKd 3.1 to 4
# Conditions: plain residues with an end cap or a label only (N-terminal biotin on a linker: ado-ado)
row,Binder,pKd
1,"FVFESRKEIL [TBPL1, P62380]",below the threshold
2,"IKLETKKTKL [SLC15A2, Q16348]",below the threshold

# Biological target: NHERF2_2, Q15599
# Test: holdup assay
# Set-up: key: below the threshold = too weak to quantify, mostly under pKd 3.1 to 4
# Conditions: plain residues with an end cap or a label only (N-terminal biotin on a linker: ado-ado)
# Chain of NHERF2_2, Q15599 (Q15599 142-238): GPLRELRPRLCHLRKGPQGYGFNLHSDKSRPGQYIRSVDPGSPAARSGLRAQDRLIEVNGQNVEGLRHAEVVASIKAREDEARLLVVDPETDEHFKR
row,Binder,pKd
1,"FVFESRKEIL [TBPL1, P62380]",below the threshold
2,"IKLETKKTKL [SLC15A2, Q16348]",4.32

# Biological target: NHERF4_4, Q86UT5
# Test: holdup assay
# Set-up: key: below the threshold = too weak to quantify, mostly under pKd 3.1 to 4
# Conditions: plain residues with an end cap or a label only (N-terminal biotin on a linker: ado-ado)
# Chain of NHERF4_4, Q86UT5 (Q86UT5 464-550): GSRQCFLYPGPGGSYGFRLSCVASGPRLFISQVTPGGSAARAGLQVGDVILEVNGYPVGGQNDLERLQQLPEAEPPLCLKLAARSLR
row,Binder,pKd
1,"FVFESRKEIL [TBPL1, P62380]",below the threshold
2,"IKLETKKTKL [SLC15A2, Q16348]",below the threshold

# Biological target: T7, PCLO, Q9Y6V0
# Test: holdup assay
# Set-up: key: below the threshold = too weak to quantify, mostly under pKd 3.1 to 4
# Conditions: plain residues with an end cap or a label only (N-terminal biotin on a linker: ado-ado)
row,Binder,pKd
1,"FVFESRKEIL [TBPL1, P62380]",below the threshold
2,"IKLETKKTKL [SLC15A2, Q16348]",below the threshold

# Biological target: T8, PTPN13_1, Q12923
# Test: holdup assay
# Set-up: key: below the threshold = too weak to quantify, mostly under pKd 3.1 to 4
# Conditions: plain residues with an end cap or a label only (N-terminal biotin on a linker: ado-ado)
row,Binder,pKd
1,"FVFESRKEIL [TBPL1, P62380]",below the threshold
2,"IKLETKKTKL [SLC15A2, Q16348]",3.56

# Biological target: T9, SHANK1, Q9Y566
# Test: holdup assay
# Set-up: key: below the threshold = too weak to quantify, mostly under pKd 3.1 to 4
# Conditions: plain residues with an end cap or a label only (N-terminal biotin on a linker: ado-ado)
row,Binder,pKd
1,"FVFESRKEIL [TBPL1, P62380]",below the threshold
2,"IKLETKKTKL [SLC15A2, Q16348]",4.85

# Biological target: T10, TX1BP3, O14907
# Test: holdup assay
# Set-up: key: below the threshold = too weak to quantify, mostly under pKd 3.1 to 4
# Conditions: plain residues with an end cap or a label only (N-terminal biotin on a linker: ado-ado)
row,Binder,pKd
1,"FVFESRKEIL [TBPL1, P62380]",below the threshold
2,"IKLETKKTKL [SLC15A2, Q16348]",4.02
